Assay results published in patent US20240158515A1, “ANTI-FGFR3 ANTIBODIES AND ANTIGEN-BINDING FRAGMENTS AND METHODS OF USE THEREOF” (Regeneron Pharmaceuticals, Inc., priority 2022, published 2024).

Key:
[1] = target: T1, human FGFR3b (hFGFR3b.mmH, REGN3152) (Homo sapiens, UniProt P22607); assay: Biacore SPR binding kinetics, monomeric human FGFR3b to captured antibodies; conditions: 25° C.
T1 construct: REGN3152 (human FGFR3b expressed with a C-terminal myc-myc-hexahistidine tag)
Protocol: (§1) Biacore binding kinetics of anti-FGFR3 antibodies, in an antibody capture format, to monomeric human FGFR3b, cynomolgus FGFR3b, murine FGFR3b, human FGFR3c, and dimeric human FGFR3b ecto domain recombinant proteins at 25° C. were analyzed.
(§2) Equilibrium dissociation constants (KD values) for human FGFR3b expressed with a C-terminal myc-myc-hexahistidine tag (hFGFR3b.mmH, REGN3152) or cynomolgus FGFR3b expressed with a C-terminal myc-myc-hexahistidine tag (mfFGFR3b.mmH, REGN3521), or murine FGFR3b expressed with a C-terminal myc-myc-hexahistidine tag (mFGFR3b.mmH, REGN3215) or human FGFR3c expressed with a C-terminal myc-myc-hexahistidine tag (hFGFR3c.mmH, REGN3155) or human FGFR3b expressed with an C-terminal murine Fc tag (hFGFR3b.mFc, REGN3153) binding to purified anti-FGFR3 antibodies were determined using a real-time surface plasmon resonance biosensor technology using a Biacore 3000 or Biacore 4000 instrument. […] Antibody-reagent association was monitored for 5 minutes while dissociation in HBS-EP running buffer was monitored for 10 minutes. […]
(§3) The specific SPR-Biacore sensorgrams were obtained by a double referencing procedure. […] Kinetic association (ka) and dissociation (kd) rate constants were determined by fitting the real-time sensorgrams to a 1:1 binding model using Scrubber v2.0c curve fitting software. […]

[2] = target: T2, human FGFR3c (hFGFR3c.mmH, REGN3155) (Homo sapiens, UniProt P22607); assay: Biacore SPR binding kinetics, monomeric human FGFR3c to captured antibodies; conditions: 25° C.
T2 construct: REGN3155 (human FGFR3c expressed with a C-terminal myc-myc-hexahistidine tag)
Protocol: as §1, §2, §3

[3] = target: T3, hFGFR3c-hFc binding to hFGF basic protein (Homo sapiens, UniProt P22607); assay: ELISA blocking of hFGFR3c-hFc binding to hFGF basic
T3 construct: hFGFR3c extracellular domain (amino acids Glu23-Gly375); purchased R&D Systems 766-FR-050
T3 sequence (P22607 23-375): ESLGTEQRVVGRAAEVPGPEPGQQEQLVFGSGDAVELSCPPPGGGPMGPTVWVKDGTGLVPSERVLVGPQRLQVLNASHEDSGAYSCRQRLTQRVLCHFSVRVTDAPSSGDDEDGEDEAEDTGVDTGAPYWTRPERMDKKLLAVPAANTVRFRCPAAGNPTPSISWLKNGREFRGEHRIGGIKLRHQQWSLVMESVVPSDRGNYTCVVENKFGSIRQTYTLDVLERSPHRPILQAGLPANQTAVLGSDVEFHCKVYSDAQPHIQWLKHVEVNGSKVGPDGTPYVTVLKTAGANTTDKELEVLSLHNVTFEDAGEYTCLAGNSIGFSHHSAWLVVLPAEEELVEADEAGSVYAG
From the text: (§4) An ELISA-based blocking assay was developed to determine the ability of anti-FGFR3 antibodies to block the binding of human fibroblast growth factor receptor 3 isoform b (hFGFR3b) or human fibroblast growth factor receptor 3 isoform c (hFGFR3c) to human fibroblast growth factor acidic (hFGF acidic) or basic (hFGF basic) ligands.
(§5) The human FGFR3b recombinant protein used in the experiments had the hFGFR3b extracellular domain (amino acids E23-G377) expressed with the Fc portion of the mouse IgG2a at the C-terminus (amino acids E98-K330) (hFGFR3b-mFc, accession #NM_001163213.1). The hFGFR3c and hFGF acidic proteins were purchased commercially. […]
(§6) In the blocking assay, a 96-well microtiter plate was coated with either hFGF acidic or hFGF basic proteins at […] in PBS+10 mg/ml heparin overnight at 4° C. […] After a 1 hour incubation at room temperature, plates were washed, and plate-bound hFGFR3b-mFc or hFGFR3c-hFc proteins were detected with horseradish peroxidase (HRP) conjugated goat anti-mouse or goat anti-human Fcγ fragment specific antibodies. The plates were then developed using TMB substrate solution (BD Biosciences) according to the manufacturer's recommended procedure and absorbance at 450 nm was measured on a Victor X5 plate reader.
(§7) Binding data were analyzed using a sigmoidal (four-parameter logistic) dose-response model using GraphPad Prism software. […]

[4] = target: T4, hFGFR3c-hFc binding to hFGF acidic protein (Homo sapiens, UniProt P22607); assay: ELISA blocking of hFGFR3c-hFc binding to hFGF acidic
T4 construct: hFGFR3c extracellular domain (amino acids Glu23-Gly375); purchased R&D Systems 766-FR-050
T4 sequence (P22607 23-375): T3 sequence (P22607 23-375)
From the text: as §4, §5, §6, §7

[5] = system: CD73 protein level in Fadu S249C tumors; assay: CD73 expression in Fadu S249C tumors in vivo, Western blot; design: species or system SCID mice; conditions: FGFR3 mAb 15 mg/kg one intraperitoneal dose; AZD4547 25 mg/kg daily gavage; FIG. 11A-11B
Protocol: To test the effect of anti-FGFR3 inhibitory antibody or tyrosine kinase inhibitor (AZD4547) on CD73 expression in vivo, tumor cells (5×10^6 UMUC14, 3×10^6 Fadu EV or S249C, in 50% Matrigel) were implanted subcutaneously into the right flank of 6 to 8-week-old female SCID mice (Jackson Laboratory). Once tumors were established (˜200 mm^3 in volume), mice were randomized into treatment groups (n=5-6 mice per group) and injected intraperitoneally once with anti-FGFR3 antibodies (15 mg/kg) or isotype control. Tyrosine kinase inhibitor AZD4547 (25 mg/kg) was administered once daily by oral gavage for 3 days. Tumors were collected 4 days post treatment initiation. Tumors were collected, snap frozen and lysed in RIPA buffer. Equal amount of tumor lysates were analyzed by SDS-PAGE and blotted with anti-CD73 and anti-FGFR3 antibodies as described above. Membranes were developed with SuperSignal West Pico or Femto substrate and luminescence images were captured with a C300 imager (Azure Biosystems). Intensity of each CD73 and actin band was quantitated using Image J (NIH), and the ratio of CD73/actin for each sample were graphed using Prism Graphpad.

[6] = system: BaF3 cells expressing FGFR3 S249C; assay: BaF3 proliferation assay, FGFR3 S249C (TKI resistance study); format: cell-based, murine; conditions: 72 h, CellTiter-Glo, FIG. 12A left; read-out: IC50, growth of BaF3 cells expressing FGFR3 S249C
Protocol: (§8) IL-3 dependent murine pro B cell line BaF3 cells were engineered to stably express full length human FGFR3b S249C, V557L, V557M, S249C/V557L, S249C/V557M (accession number for WT FGFR3b NP_001156685.1, amino acids M1-T808). Cells were maintained in RPMI 1640+10% FBS+P/S/G+1 ng/ml mouse IL-3+500 ug/ml Neomycin; 37° C. 5% CO2. For proliferation assays, cells were washed with IL-3-free culture media and plated at 10^5 cells/well into 96-well black wall tissue culture plates. Cells were treated with 1:3 serially diluted antibody as indicated in the presence or absence of 5 μg/ml heparin and 1 nM human FGF1. After addition of antibodies, cells were incubated at 37° C./5% CO2 for 72 h followed by the addition of an equal volume of CellTiter-Glo™ (Promega) reagent to lyse cells and detect luciferase activity. Luminescence signal was quantitated with Envision plate reader (PerkinElmer). EC50 values of the antibodies were determined using GraphPad Prism software.

[7] = system: BaF3 cells expressing FGFR3 S249C/V557M; assay: BaF3 proliferation assay, FGFR3 S249C/V557M; format: cell-based, murine; conditions: FIG. 12B
Protocol: as §8

[8] = system: CD73 protein level in UMUC14 cells; assay: CD73 expression in UMUC14 cells in vitro, Western blot; format: cell-based; conditions: 1 nM, 10 nM, 100 nM, 48 hrs, FIG. 6
Protocol: To investigate the effect of anti-FGFR3 antibody or tyrosine kinase inhibitor (AZD4547; commercially available) on CD73 expression, UMUC14 bladder cancer cells were seeded in 6 well tissue culture plate (Corning) in complete medium (MEM medium with 10% FBS, 1% Non-Essential Amino Acids, Pen/Strep) and cultured overnight at 37° C. 5% CO2. Cells were then treated with antibodies or inhibitors at indicated concentration (100 nM, 10 nM or 1 nM) for 48 hrs. Cells were washed with pre-chilled PBS and collected in lysis buffer containing protease and phosphatase inhibitors. Equal amount of cell lysates were analyzed by SDS-PAGE. Blots were blocked in 0.5% Tween 20 in Tris buffered saline (TBS) containing 5% non-fat dry milk followed by overnight incubation with anti-CD73 primary antibody (Cell Signaling Technology). After washing 3× with TBST and incubation with secondary antibody, membranes were developed with SuperSignal West Pico or Femto substrate and luminescence images were captured with a C300 imager (Azure Biosystems).

[9] = system: BaF3 cells expressing FGFR3 S249C/V557L; assay: BaF3 proliferation assay, FGFR3 S249C/V557L; format: cell-based, murine; conditions: FIG. 12A right
Protocol: as §8

T2 sequence (P22607 with tags, fused parts or gaps): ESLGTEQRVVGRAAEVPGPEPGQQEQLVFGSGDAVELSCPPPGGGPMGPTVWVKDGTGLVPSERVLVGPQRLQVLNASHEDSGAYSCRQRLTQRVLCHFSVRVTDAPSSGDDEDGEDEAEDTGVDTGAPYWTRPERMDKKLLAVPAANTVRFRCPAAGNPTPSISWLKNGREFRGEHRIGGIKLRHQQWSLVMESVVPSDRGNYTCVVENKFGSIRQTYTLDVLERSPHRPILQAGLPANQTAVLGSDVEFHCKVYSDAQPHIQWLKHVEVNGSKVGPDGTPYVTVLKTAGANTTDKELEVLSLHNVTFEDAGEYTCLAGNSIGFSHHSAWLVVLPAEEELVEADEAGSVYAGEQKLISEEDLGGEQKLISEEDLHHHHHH
T1 sequence (P22607 with tags, fused parts or gaps isoform P22607-2): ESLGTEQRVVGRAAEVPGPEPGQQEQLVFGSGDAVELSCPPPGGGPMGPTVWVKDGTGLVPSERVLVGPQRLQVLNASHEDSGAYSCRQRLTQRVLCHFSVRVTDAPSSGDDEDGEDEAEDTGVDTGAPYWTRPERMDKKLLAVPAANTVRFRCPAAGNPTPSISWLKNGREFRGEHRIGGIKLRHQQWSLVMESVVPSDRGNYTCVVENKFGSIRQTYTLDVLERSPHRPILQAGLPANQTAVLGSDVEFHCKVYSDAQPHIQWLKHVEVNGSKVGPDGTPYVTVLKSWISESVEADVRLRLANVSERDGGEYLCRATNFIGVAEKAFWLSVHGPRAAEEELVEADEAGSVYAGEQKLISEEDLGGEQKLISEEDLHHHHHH

Substance	ka [1] [M⁻¹ s⁻¹]	kd [1] [s⁻¹]	ka [2] [M⁻¹ s⁻¹]	kd [2] [s⁻¹]	Antibody blocking 7 nM hFGFR3c-hFc binding to hFGF basic protein, % Blocking at 200 nM mAb [3] [%]	Antibody blocking 0.4 nM hFGFR3c-hFc binding to hFGF acidic protein, % Blocking at 200 nM mAb [4] [%]	CD73 expression in Fadu S249C tumors in vivo (in words) [5]	IC50 [6] [nM]	growth inhibition of BaF3 cells expressing FGFR3 S249C+V557M (in words) [7]	CD73 expression in UMUC14 cells in vitro (in words) [8]	growth inhibition of BaF3 cells expressing FGFR3 S249C+V557L (in words) [9]
REGN6331: comparator; relates to FGFR3b mAb, hIgG1 (mAb 184.6.1 N54S, Genentech); HC SEQ ID NO: 244, LC SEQ ID NO: 243 [reference compound]	883000	0.000616	544000	0.00132	87	86	–	–	–	–	–
AZD4547 [reference compound]	–	–	–	–	–	–	decreased expression of CD73 relative to mice treated with control	9.9	ineffective	dose dependent downregulation of CD73 expression	ineffective
